The record followed here is patent US20100048677A1 (NEW YORK BLOOD CENTER, published 2010).

Chain of UniProt Q8IYS1 (Q8IYS1 whole entry): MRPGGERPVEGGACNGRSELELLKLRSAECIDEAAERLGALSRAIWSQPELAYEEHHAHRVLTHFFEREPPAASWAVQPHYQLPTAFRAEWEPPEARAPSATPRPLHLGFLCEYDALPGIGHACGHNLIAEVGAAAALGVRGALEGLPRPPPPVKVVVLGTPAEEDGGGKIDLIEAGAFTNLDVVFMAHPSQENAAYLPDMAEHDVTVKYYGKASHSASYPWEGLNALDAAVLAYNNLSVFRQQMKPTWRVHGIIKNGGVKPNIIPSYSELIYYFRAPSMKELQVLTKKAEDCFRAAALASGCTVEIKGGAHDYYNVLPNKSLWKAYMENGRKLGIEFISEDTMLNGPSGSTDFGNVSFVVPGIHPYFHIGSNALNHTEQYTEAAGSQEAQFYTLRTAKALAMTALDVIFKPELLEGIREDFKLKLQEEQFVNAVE
Chain of HOMER HOMOLOG 3 (DROSOPHILA) (Q9NSC5 whole entry): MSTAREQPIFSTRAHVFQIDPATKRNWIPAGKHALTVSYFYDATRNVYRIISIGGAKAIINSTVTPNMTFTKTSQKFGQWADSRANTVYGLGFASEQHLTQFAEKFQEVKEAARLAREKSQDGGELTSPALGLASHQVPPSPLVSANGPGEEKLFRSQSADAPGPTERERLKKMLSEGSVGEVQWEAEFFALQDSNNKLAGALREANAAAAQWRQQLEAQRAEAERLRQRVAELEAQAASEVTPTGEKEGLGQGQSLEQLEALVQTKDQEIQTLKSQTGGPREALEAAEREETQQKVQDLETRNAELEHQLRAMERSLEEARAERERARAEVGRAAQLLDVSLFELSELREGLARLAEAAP

For this experiment, the target named is αIIb (INTEGRIN, ALPHA 2B; PLATELET GLYCOPROTEIN IIB OF IIB/IIIA COMPLEX, ANTIGEN CD41) (human) (UniProt P08514). The experiment in a line: αIIb complexes captured, mass spectrometry; No. Expts 1.
In turn, “3-HYDROXY-3-METHYLGLUTARYL-COENZYME A SYNTHASE 1 (SOLUBLE) (from UniProt Q01581 1-520)” yielded a #Peptides of 4 peptides. Take “ACTININ, ALPHA 3 (from UniProt Q08043 1-901)”: the #Peptides was 8 peptides. The result for “ADP-… GLUCOKINASE (from UniProt Q9BRR6 23-497)” reads 9 peptides; that for “ALDO-KETO REDUCTASE FAMILY 7, MEMBER A2 (AFLATOXIN ALDEHYDE REDUCTASE) (from UniProt O43488 39-359)”, 19 peptides; that for “ALPHA-2-MACROGLOBULIN (from UniProt P01023 24-1474)”, 2 peptides.

As for “AMINOACYLASE 1-LIKE 2 (from UniProt Q8IYS1 1-436)”, the #Peptides stood at 13 peptides. “AMINOLEVULINATE, DELTA-, … (from UniProt P13716 1-330)” registered a #Peptides of 8 peptides. For “ATAXIN 2-LIKE (from UniProt Q8WWM7 1-1075)”, the #Peptides is 8 peptides. In turn, “ATP CITRATE LYASE (from UniProt P53396 1-1101)” yielded a #Peptides of 5 peptides. The result for “ATP SYNTHASE, H+ TRANSPORTING, MITOCHONDRIAL F1 COMPLEX, ALPHA SUBUNIT 1, CARDIAC MUSCLE (from UniProt P25705 44-553)” reads 2 peptides; that for “ATP-BINDING CASSETTE, SUB-FAMILY A (ABC1), MEMBER 13 (from UniProt Q86UQ4 1-5058)”, 2 peptides; that for “C5orf25 (FLJ44216 PROTEIN) (from UniProt Q8NDZ2 1-872)”, 4 peptides. The result for “CARS2 (HYPOTHETICAL PROTEIN FLJ12118) (from UniProt Q9HA77 1-564)” reads 9 peptides; that for “CASEIN KINASE 2, ALPHA PRIME PO… (from UniProt P19784 1-350)”, 3 peptides; that for “CHAPERONIN CONTAINING TCP1, SUBUNIT 4 (DELTA) (from UniProt P50991 2-539)”, 8 peptides. The result for “CHAPERONIN CONTAINING TCP1, SUBUNIT 7 (ETA) (from UniProt Q99832 1-543)” reads 11 peptides. Substance “CHD9 (HYPOTHETICAL PROTEIN BC022889) (from UniProt Q3L8U1 1-2897)” showed a #Peptides of 7 peptides. On to “CITRON (RHO-…, SERINE/THREONINE KINASE 21) (from UniProt O14578 1-2027)”, for which the #Peptides was 4 peptides.

Regarding “CNDP … 2 (METALLO… M20 FAMILY) (from UniProt Q96KP4 2-475)”, the #Peptides was 6 peptides. In turn, “COILED-COIL DOMAIN CONTAINING 50 (from UniProt Q8IVM0 2-306)” showed a #Peptides of 7 peptides. Take “CORONIN, ACTIN BINDING PROTEIN, 1A (from UniProt P31146 2-461)”: the #Peptides was found to be 2 peptides. The result for CORTACTIN (from UniProt Q14247 1-550) reads 5 peptides. The result for CULLIN 5 (from UniProt Q93034 1-780) reads 5 peptides; that for CYCLIN B2 (from UniProt O95067 1-398), 2 peptides; that for CYCLIN G1 (from UniProt P51959 1-295), 2 peptides. Consider CYCLIN K (from UniProt O75909 1-580), for which the #Peptides is 1 peptides.

With “DEAH (ASP-GLU-ALA-HIS) BOX PO… 38 (from UniProt Q92620 2-1227)”, the #Peptides was 3 peptides.

“DEHYDROGENASE E1 AND TRANSKETOLASE DOMAIN CONTAINING 1 (from UniProt Q96HY7 1-919)” showed a #Peptides of 25 peptides. The substance “ENGULFMENT AND CELL MOTILITY 1 (from UniProt Q92556 1-727)” gave a #Peptides of 3 peptides.

The substance “EUKARYOTIC ELONGATION FACTOR-2 KINASE (from UniProt O00418 2-725)” returned a #Peptides of 4 peptides. The result for “EXOSOME COMPONTENT 10 (from UniProt Q01780 1-885)” reads 9 peptides; that for “FERM AND PDZ DOMAIN CONTAINING 1 (from UniProt Q5SYB0 1-1578)”, 4 peptides; that for “FOUR AND A HALF LIM DOMAINS 1 (from UniProt Q13642 2-323)”, 5 peptides. The result for GEPHYRIN (from UniProt Q9NQX3 1-736) reads 12 peptides; that for “GLUCO… AER61 (from UniProt Q5NDL2 18-527)”, 3 peptides. The result for “GLUTAMATE RECEPTOR, IONOTROPIC, N-METHYL D-… 2D (from UniProt O15399 28-1336)” reads 2 peptides; that for “HEAT SHOCK 70 kDa PROTEIN 1A (from UniProt P0DMV8 2-641)”, 15 peptides. Consider “HEAT SHOCK 70 kDa PROTEIN 1B (from UniProt P0DMV9 2-641)”, for which the #Peptides is 15 peptides.

For “HEAT SHOCK 70 kDa PROTEIN 9B (MORTALIN-2) (from UniProt P38646 47-679)”, the #Peptides is 11 peptides. Consider “HETEROGENEOUS NUCLEAR RIBONUCLEOPROTEIN H1 (from UniProt P31943 1-449)”, for which the #Peptides was 9 peptides. Regarding “HOMER HOMOLOG 3 (DROSOPHILA) (from UniProt Q9NSC5 1-361)”, the #Peptides was 1 peptides. Take “HTRA SERINE … 2 (from UniProt O43464 134-458)”: the #Peptides stood at 8 peptides.

With HYPOTHETICAL PROTEIN FLJ22184, the #Peptides is 4 peptides.

As for “ISOCITRATE DEHYDROGENASE 3 (NAD+) ALPHA (from UniProt P50213 28-366)”, the #Peptides stood at 5 peptides. The result for “KERATIN 16 (FOCAL NON-EPIDERMOLYTIC PALMOPLANTAR KERATODERMA) (from UniProt P08779 1-473)” reads 28 peptides; that for KERATIN 19 (from UniProt P08727 1-400), 3 peptides. In the case of “KIAA0895 PROTEIN (from UniProt Q8NCT3 1-520)”, the #Peptides was determined as 3 peptides.

Turning to “KINESIN FAMILY MEMBER 14 (from UniProt Q15058 1-1648)”, the #Peptides came out at 7 peptides.

The substance “LECTIN, MANNOSE-BINDING, 1 (from UniProt P49257 31-510)” came in with a #Peptides of 16 peptides. On to LOC731751 (UNKNOWN PROTEIN), for which the #Peptides amounted to 15 peptides. The result for “LUC7L2 (CGI-59 PROTEIN) (from UniProt Q9Y383 1-392)” reads 3 peptides.

“MALIC ENZYME 2, NAD(+)-…, MITOCHONDRIAL (from UniProt P23368 19-584)” displayed a #Peptides of 20 peptides.

In turn, “MITOGEN-… PROTEIN KINASE KINASE KINASE 7 … PROTEIN 2 (from UniProt Q9NYJ8 1-693)” registered a #Peptides of 2 peptides. The substance “MYELOPEROXIDASE (from UniProt P05164 165-745)” came in with a #Peptides of 3 peptides. “N-ACETYLGLUCOSAMINE KINASE (from UniProt Q9UJ70 2-344)” came in with a #Peptides of 4 peptides. The result for “NON-POU DOMAIN CONTAINING, OCTAMER-BINDING (from UniProt Q15233 1-471)” reads 32 peptides. “NUDIX (NUCLEOSIDE DIPHOSPHATE LINKED MOIETY X)-TYPE MOTIF 19 (from UniProt A8MXV4 1-375)” gave a #Peptides of 10 peptides. The result for “PATCHED DOMAIN CONTAINING 2 (from UniProt Q9P2K9 1-1392)” reads 2 peptides; that for “PDZ AND LIM DOMAIN 7 (ENIGMA) (from UniProt Q9NR12 1-457)”, 2 peptides; that for “PEROXIREDOXIN 3 (from UniProt P30048 62-256)”, 4 peptides. For “POLYMERASE (DNA-DIRECTED), DELTA … PROTEIN 2 (from UniProt Q9Y2S7 52-368)”, the #Peptides is 11 peptides. The result for “PRE-B-CELL COLONY … FACTOR 1 (from UniProt P43490 1-491)” reads 6 peptides; that for “PRE-MRNA CLEAVAGE FACTOR I, 59 kDa SUBUNIT (from UniProt Q8N684 1-471)”, 6 peptides. The result for “PROTEIN KINASE, AMP-…, BETA 1 NON-… SUBUNIT (from UniProt Q9Y478 2-270)” reads 9 peptides. For “PROTEIN KINASE, AMP-…, GAMMA 1 NON-… SUBUNIT (from UniProt P54619 1-331)”, the #Peptides came out at 12 peptides. The result for “PROTEIN PHOSPHATASE 1, REGULATORY (INHIBITOR) SUBUNIT 9A (from UniProt Q9ULJ8 1-1098)” reads 6 peptides.

In turn, “PROTEIN PHOSPHATASE 1, … SUBUNIT, ALPHA ISOFORM (from UniProt P62136 2-330)” gave a #Peptides of 2 peptides.

In turn, “PYRUVATE KINASE, MUSCLE (from UniProt P14618 2-531)” had a #Peptides of 13 peptides.

Regarding “RAB … LYSOSOMAL PROTEIN-LIKE 1 (from UniProt Q5EBL4 1-403)”, the #Peptides was determined as 7 peptides. For “RAN BINDING PROTEIN 10 (from UniProt Q6VN20 2-620)”, the #Peptides turned out to be 2 peptides. The result for RAVER1 (from UniProt Q8IY67 2-606) reads 2 peptides; that for “RB1-INDUCIBLE COILED-COIL 1 (from UniProt Q8TDY2 1-1594)”, 6 peptides.

The substance “REGULATION OF NUCLEAR pre-mRNA DOMAIN CONTAINING 1A (from UniProt Q96P16 2-312)” came in with a #Peptides of 7 peptides. The result for “SEC13-LIKE 1 (S. …) (from UniProt P55735 2-322)” reads 3 peptides; that for “SEC23 HOMOLOG A (S. …) (from UniProt Q15436 2-765)”, 3 peptides; that for “SEMENOGELIN I (from UniProt P04279 24-462)”, 3 peptides. In turn, “SERPINE1 MRNA BINDING PROTEIN 1 (from UniProt Q8NC51 2-408)” showed a #Peptides of 6 peptides. Turning to “SIN3A-ASSOCIATED PROTEIN, 130 kDa (from UniProt Q9H0E3 1-1048)”, the #Peptides stood at 5 peptides. “SODIUM CHANNEL, VOLTAGE-GATED, TYPE X, ALPHA (from UniProt Q9Y5Y9 1-1956)”: the #Peptides amounted to 11 peptides.
